The text below walks through data of patent US20250262210A1 (TRUSTEES OF COLUMBIA UNIVERSITY IN THE CITY OF NEW YORK, published 2025).

This assay concerns the target T1, SBNO2 (human, UniProt Q9Y2G9 1-1366, limits assumed).
T1 sequence (looked up): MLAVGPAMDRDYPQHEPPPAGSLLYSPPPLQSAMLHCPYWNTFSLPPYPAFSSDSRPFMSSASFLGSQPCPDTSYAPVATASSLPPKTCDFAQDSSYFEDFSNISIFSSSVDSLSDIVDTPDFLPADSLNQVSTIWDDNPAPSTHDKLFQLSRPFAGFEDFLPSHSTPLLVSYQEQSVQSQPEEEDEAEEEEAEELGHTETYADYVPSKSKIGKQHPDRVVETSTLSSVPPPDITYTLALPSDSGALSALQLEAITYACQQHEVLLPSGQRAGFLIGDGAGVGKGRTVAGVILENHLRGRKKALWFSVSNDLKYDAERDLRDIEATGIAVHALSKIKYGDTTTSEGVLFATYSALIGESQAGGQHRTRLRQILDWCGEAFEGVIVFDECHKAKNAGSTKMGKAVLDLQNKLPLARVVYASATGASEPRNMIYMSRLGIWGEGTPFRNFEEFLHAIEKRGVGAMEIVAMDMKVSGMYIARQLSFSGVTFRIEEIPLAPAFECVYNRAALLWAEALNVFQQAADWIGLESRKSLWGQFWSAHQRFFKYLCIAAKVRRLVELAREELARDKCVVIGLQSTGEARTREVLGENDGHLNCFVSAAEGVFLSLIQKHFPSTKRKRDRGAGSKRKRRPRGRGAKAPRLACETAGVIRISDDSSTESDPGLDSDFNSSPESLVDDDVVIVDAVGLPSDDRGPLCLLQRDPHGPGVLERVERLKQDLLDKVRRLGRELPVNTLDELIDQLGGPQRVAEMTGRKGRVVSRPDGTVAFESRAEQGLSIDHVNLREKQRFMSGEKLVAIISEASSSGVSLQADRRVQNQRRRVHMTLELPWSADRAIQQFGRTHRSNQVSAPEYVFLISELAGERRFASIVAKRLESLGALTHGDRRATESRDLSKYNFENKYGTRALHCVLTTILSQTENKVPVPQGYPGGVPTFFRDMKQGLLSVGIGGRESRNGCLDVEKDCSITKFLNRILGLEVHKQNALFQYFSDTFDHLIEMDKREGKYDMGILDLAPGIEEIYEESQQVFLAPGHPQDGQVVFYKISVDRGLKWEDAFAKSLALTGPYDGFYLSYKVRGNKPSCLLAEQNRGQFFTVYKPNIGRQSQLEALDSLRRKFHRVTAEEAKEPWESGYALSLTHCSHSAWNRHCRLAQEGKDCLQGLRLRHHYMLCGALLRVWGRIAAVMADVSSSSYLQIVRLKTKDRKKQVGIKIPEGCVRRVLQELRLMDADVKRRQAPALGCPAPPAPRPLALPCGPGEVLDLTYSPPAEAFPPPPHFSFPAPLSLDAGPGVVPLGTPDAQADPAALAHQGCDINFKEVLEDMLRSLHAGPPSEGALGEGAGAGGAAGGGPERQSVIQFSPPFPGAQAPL
The assay can be described thus: IP/MS, LZTR1 wild type-FLAG, U87. In a few lines:
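Read-out: spectral counts from LC-MS/MS (Orbitrap Fusion) after MaxQuant identification. Variable modifications were Met oxidation, protein N-terminal acetylation and N/Q deamidation.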

B1: LZTR1-FLAG (other, human, UniProt Q8N653 1-840, looked up)
chain: MAGPGSTGGQIGAAALAGGARSKVAPSVDFDHSCSDSVEYLTLNFGPFETVHRWRRLPPCDEFVGARRSKHTVVAYKDAIYVFGGDNGKTMLNDLLRFDVKDCSWCRAFTTGTPPAPRYHHSAVVYGSSMFVFGGYTGDIYSNSNLKNKNDLFEYKFATGQWTEWKIEGRLPVARSAHGATVYSDKLWIFAGYDGNARLNDMWTIGLQDRELTCWEEVAQSGEIPPSCCNFPVAVCRDKMFVFSGQSGAKITNNLFQFEFKDKTWTRIPTEHLLRGSPPPPQRRYGHTMVAFDRHLYVFGGAADNTLPNELHCYDVDFQTWEVVQPSSDSEVGGAEVPERACASEEVPTLTYEERVGFKKSRDVFGLDFGTTSAKQPTQPASELPSGRLFHAAAVISDAMYIFGGTVDNNIRSGEMYRFQFSCYPKCTLHEDYGRLWESRQFCDVEFVLGEKEECVQGHVAIVTARSRWLRRKITQARERLAQKLEQEAAPVPREAPGVAAGGARPPLLHVAIREAEARPFEVLMQFLYTDKIKYPRKGHVEDVLLIMDVYKLALSFQLCRLEQLCRQYIEASVDLQNVLVVCESAARLQLSQLKEHCLNFVVKESHFNQVIMMKEFERLSSPLIVEIVRRKQQPPPRTPLDQPVDIGTSLIQDMKAYLEGAGAEFCDITLLLDGHPRPAHKAILAARSSYFEAMFRSFMPEDGQVNISIGEMVPSRQAFESMLRYIYYGEVNMPPEDSLYLFAAPYYYGFYNNRLQAYCKQNLEMNVTVQNVLQILEAADKTQALDMKRHCLHIIVHQFTKVSKLPTLRSLSQQLLLDIIDSLASHISDKQCAELGADI
notes: Expressed in HEK 293T, HeLa or U87 cells; used as cell lysate; also called LZTR1 wild type-FLAG; LZTR1 WT; not shown: FLAG tag at the C-terminus
For B1, the binding result is “binds”.
